We go through 1 molecule from paper PMC4992421 (Nature immunology, 2016).

What all share (test): SPR
(In SPR one partner is held on a chip, and binding of the other changes the refractive index at the surface.)

In assay [1] the target is KIR3DS1-Fc (human, UniProt Q14943).
The target of assay [2] is KIR3DL1-Fc (human, UniProt P43629).
The target in assay [3] is KIR3DL2-Fc (human, UniProt P43630).
Chain of KIR3DL2-Fc (P43630 22-340): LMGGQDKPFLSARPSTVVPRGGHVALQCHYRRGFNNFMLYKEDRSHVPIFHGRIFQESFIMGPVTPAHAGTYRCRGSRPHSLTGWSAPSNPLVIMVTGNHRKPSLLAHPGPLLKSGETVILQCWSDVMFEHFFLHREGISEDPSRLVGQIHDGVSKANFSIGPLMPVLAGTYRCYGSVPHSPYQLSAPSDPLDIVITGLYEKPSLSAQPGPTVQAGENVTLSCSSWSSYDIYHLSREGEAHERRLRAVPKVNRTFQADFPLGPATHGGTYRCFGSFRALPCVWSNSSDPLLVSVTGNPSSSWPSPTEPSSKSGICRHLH

Chain of KIR3DS1-Fc (Q14943 22-340): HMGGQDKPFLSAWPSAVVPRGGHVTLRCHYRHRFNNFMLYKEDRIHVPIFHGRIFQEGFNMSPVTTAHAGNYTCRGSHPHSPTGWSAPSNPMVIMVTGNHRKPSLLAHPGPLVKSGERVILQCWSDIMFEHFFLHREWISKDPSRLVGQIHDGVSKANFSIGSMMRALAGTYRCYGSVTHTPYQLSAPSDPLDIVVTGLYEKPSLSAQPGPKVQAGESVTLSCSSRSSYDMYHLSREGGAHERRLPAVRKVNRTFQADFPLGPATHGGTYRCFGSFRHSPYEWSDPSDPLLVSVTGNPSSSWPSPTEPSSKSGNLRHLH
Chain of KIR3DL1-Fc (P43629 22-340): as the sequence (Q14943 22-340) above, with V47I, G58S, M92V, R136K, W138G, S163P, R166L, L199P, L315P counted along it

B1: HLA-F open conformer (natural protein)
MHC heavy: GSHSLRYFSTAVSRPGRGEPRYIAVEYVDDTQFLRFDSDAAIPRMEPREPWVEQEGPQYWEWTTGYAKANAQTDRVALRNLLRRYNQSEAGSHTLQGMNGCDMGPDGRLLRGYHQHAYDGKDYISLNEDLRSWTAADTVAQITQRFYEAEEYAEEFRTYLEGECLELLRRYLENGKETLQRADPPKAHVAHHPISDHEATLRCWALGFYPAEITLTWQRDGEEQTQDTELVETRPAGDGTFQKWAAVVVPPGEEQRYTCHVQHEGLPQPLILRWEQSPQPTIPI
modifications: biotin (biotinylated monomer, site not stated)
On to B1, for which the Kd – broadly, the free concentration of one partner at which half of the binding sites on the other are occupied at equilibrium, for simple one-to-one binding – in assay [1] is 25 nM; in assay [2] it was 157 nM; in assay [3], 118 nM. Moreover, the off-rate constant (koff) (as a rule, the first-order rate constant of dissociation) was 0.0007 s⁻¹ in assay [1], 0.00691 s⁻¹ in assay [2] and 0.00508 s⁻¹ in assay [3]. For the same molecule, the kon (usually the second-order rate constant of association) in assay [1] turned out to be 28400 M⁻¹ s⁻¹; in assay [2], 44000 M⁻¹ s⁻¹; in assay [3] it was 43000 M⁻¹ s⁻¹.
